Results reported in patent publication EP1234033B1.

Molecular target: FGF receptor-3c on human osteosarcoma cell line (ATCC, CRL 1543) (human) (UniProt P22607)
Experiment: cell-based or functional assay

UniProt P22607, sequence (P22607 23-806): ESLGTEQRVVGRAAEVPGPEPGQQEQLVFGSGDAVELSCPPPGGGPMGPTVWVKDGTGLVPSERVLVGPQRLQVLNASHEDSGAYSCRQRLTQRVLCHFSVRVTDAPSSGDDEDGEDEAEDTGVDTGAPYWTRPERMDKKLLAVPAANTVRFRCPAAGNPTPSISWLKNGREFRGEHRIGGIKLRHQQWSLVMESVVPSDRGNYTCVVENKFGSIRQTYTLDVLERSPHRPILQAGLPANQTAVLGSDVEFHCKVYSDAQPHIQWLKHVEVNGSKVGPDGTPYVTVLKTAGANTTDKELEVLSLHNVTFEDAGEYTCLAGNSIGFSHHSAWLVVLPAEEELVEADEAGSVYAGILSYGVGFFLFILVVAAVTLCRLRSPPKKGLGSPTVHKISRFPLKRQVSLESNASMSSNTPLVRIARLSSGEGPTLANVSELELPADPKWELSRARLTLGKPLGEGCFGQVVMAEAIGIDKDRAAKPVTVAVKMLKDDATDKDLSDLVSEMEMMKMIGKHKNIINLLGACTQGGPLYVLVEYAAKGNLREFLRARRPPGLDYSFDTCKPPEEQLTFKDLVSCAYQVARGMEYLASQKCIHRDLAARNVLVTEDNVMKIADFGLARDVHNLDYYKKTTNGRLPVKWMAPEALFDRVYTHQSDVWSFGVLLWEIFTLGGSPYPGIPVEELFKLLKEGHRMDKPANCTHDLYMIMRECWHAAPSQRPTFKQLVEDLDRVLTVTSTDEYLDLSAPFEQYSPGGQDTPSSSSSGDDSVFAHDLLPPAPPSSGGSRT

**Q.** How did the LD50 (sensitivity of cell line to the FGF-18-saporin conjugate) turn out when FGF-18-saporin conjugate was run?
**A.** The LD50 (sensitivity of cell line to the FGF-18-saporin conjugate) was less than 1 nM.
